Data reported in patent US20230242677A1.

Target: Protein A (Staphylococcus aureus) (UniProt P38507)
Assay: Protein A interaction assay (POROS A column HPLC), acidic elution

hu IgG (positive control) (antibody)
retention time: 31.3 min
